Measurements as given in patent US6855495B1, “Toso as a target for drug screening” (Rigel Pharmaceuticals, Inc., priority 1998, dated 2005).
Like-named read-outs stand apart in the source and are kept apart here.

How the values were obtained:
[1] = Gamen et al. 1996; cited from earlier work
[2] = tested on: 70Z/3 cells
[3] = tested on: Jurkat.ecoR cells; experiment: staurosporine- and ceramide-induced apoptosis in Jurkat.ecoR cells; format: cell-based, human; conditions: 24 hours, any concentration
Description: Jurkat cells that express the receptor for ecotropic murine retroviruses (“Jurkat.ecoR”) were infected with retroviruses that express Toso and control vectors, pBabeMN-Toso, pBabeMN-lacZ and pBabeMN-Lyt-2-α′(α′ form of mouse CD8α chain) (Tagawa, et al. (1986)). Jurkat.ecOR cells were infected with pBabeMN-lacZ, pBabeMN-Lyt-2-α′, and pBabeMN-Toso. At 72 hours postinfection, infection frequency of pBabeMN-lacZ and pBabeMN-Lyt-2α′ were determined to be 45% and 58%, respectively. Jurkat cells were then cultured with 10 ng/ml anti-Fas mAb for 24 hours. After 12 or 24 hours, the cells were stained with 100 μg/ml ethidium bromide (SIGMA) and 100 μg/ml acridine orange (SIGMA). […]
Staurosporine is a bacterial alkaloid that is a broad spectrum inhibitor of protein kineses (Tamaoki and Nakano, Biotechnology, 8:732-735 (1990)) and induces programmed cell death in various cell lines and dissociated primary cells in culture (Ishizaki, et al, J. Cell Biol., 121:899-908 (1993); Jacobson, et al., Nature, 361:365-369 (1993); Raff, et al., Science. 262:695-700 (1993)). Ceramide generation is implicated in a signal transduction pathway that mediates programmed cell death induced by Fas and TNF-α (Cifone, et al., J. Exp. Med., 180:1547-1552 (1994); Obeid, et al., Science, 259:1769-1771 (1993)). pBabeMN-LacZ infected cells were counted by microscopic observation; infection frequency was determined to be 57%. […]

[4] = tested on: caspase-8; experiment: Western blot of caspase-8 processing after Fas activation; format: cell-based, human; conditions: 50 ng/ml anti-Fas mAb, 6 hours, versus control Jurkat.ecoR cells
Description: The effect of overexpression of Toso on processing of caspase-8, which associates with FADD, was evaluated. […] To detect caspase-8, whole-cell lysates (2×10^6 cells per lane) were resolved by SDS-PAGE, transferred to an membrane and processed with goat anti-Mch5 p20 antibody (Santa Cruz Biotechnology, Inc., Santa Cruz, Calif. 95060, U.S.A.) as described above.

[5] = tested on: human cell lines; experiment: anti-Fas mAb-induced apoptosis in several human cell lines overexpressing Toso; format: cell-based; conditions: data not shown
Description: Toso was expressed in several human cell lines including Jurkat cells, CemT4 cells (human T cell leukemia), SupT1 cells (human T cell leukemia, a kind gift from Dr. Cleary, M. L., Stanford Univ.), Oli-Ly8 cells (human B cell line; transformed with EBV), AMK cells (human B cell line; transformed with EBV), both a gift from Dr. Negrin, R. S., Stanford Univ., Reh cells (acute lymphocytic leukemia; non T; non B), HL-60 cells (promyelocytic leukemia) and HepG2 cells (hepatoma) using pBabeMN-Toso IRES neo to allow cotranslational selection with Geneticin (GIBCO BRL).

[6] = tested on: cFLIP; experiment: semi-quantitative RT-PCR of cFLIP mRNA expression; format: cell-based, human; conditions: Jurkat.ecoR cells
Description: Recently several groups have reported cFLIP is a caspase-8 inhibitor. We performed semi-quantitative RT-PCR to detect […] expression. To detect […] expression, a 1.1 kbp fragment (998-2061) of the cFLIP gene (U97074) was amplified with primers 5'-[NT] ID NO:32) and 5'-[NT] ID NO:33) for 35 cycles as described above. The sequence of the 1.1 kbp PCR product was verified using cycle sequencing ready reaction kit (Perkin Elmer, Calif. 94404, U.S.A.).

[7] = tested on: Jurkat.ecoR cells; experiment: TNF-α-induced apoptosis in Jurkat.ecoR cells; format: cell-based, human; conditions: 1 μg/ml TNF-α with 0.1 μg/ml CHX, 12 hours, versus Lyt-2-α′
Description: The Fas receptor has homology to the TNF-α receptor, and these two receptors share analogous signaling systems as well as several intracellular mediators (Hsu, et al., Cell, 84:299-308 (1996)). The protective effect of Toso against TNF-α-induced apoptosis was tested by culturing Jurkat.ecOR cells expressing Lyt-2-α′ or Toso with 10 ng/ml of anti-Fas mAb or 1 μg/ml of TNF-α in the presence of 0.1 μg/ml of cyclohexamide (CHX) for 12 hours and apoptotic cells were counted. The infection frequency of pBabeMN-Lyt-2-α′ was determined to be 58%. […] Thus the TNF-α and Fas signaling pathways may converge at a common point that can be inhibited by Toso.

[8] = tested on: Jurkat.ecoR cells; experiment: FADD-induced apoptosis in Jurkat.ecoR cells; format: cell-based, human; conditions: 24 hours postinfection with pBabeMN-FADD
Description: Fas-mediated apoptosis is activated through FADD. For FADD-induced apoptosis, mouse FADD (a gift from Dr. Angeles Estelles, Dept. Mol. Pharm., Stanford Univ.) was ligated into pBabeMN retroviral vector. Jurkat.ecoR cells expressing Lyt-2-α′ or Toso were infected with pBabeMN-LacZ or pBabeMN-FADD. After 24 hours infection with FADD, the cells were stained with ethidium bromide and acridine orange and counted the apoptotic cells. The effect of Toso on FADD-induced apoptosis was investigated by infecting Jurkat.ecoR cells expressing Lyt-2-α′ or Toso, with pBabeMN-LacZ or pBabeMN-FADD. The reinfection efficiency was approximately 40% using pBabeMN-LacZ. Jurkat.ecoR cells were infected with pBabeMN-Lyt-2-α′ and pBabeMN-Toso. Infection frequency of pBabeMN-Lyt-2-α′ was determined to be 72%. Jurkat.ecoR cells expressing Lyt-2-α′ or Toso were infected with pBabeMNLacZ or pBabeMN-FADD and apoptotic cells were counted at 24 hourrs postinfection. Infection frequency of pBabeMN-lacZ in Jurkat.ecoR cells expressing Lyt-2-α′ and Toso was determined to be 39% and 43%, respectively.

[9] = tested on: Bcl-2 and Bcl XL; experiment: Western blot of Bcl-2 and Bcl XL expression levels in Toso expressing cells; format: cell-based, human; conditions: data not shown
Description: The downstream effects of Toso on known inhibitors of apoptosis, were evaluated by western blot analysis of Bcl-2 and BCI XL expression levels in Toso expressing cells. Bcl-2 overexpression can block Fas-induced apoptosis as well as staurosporine-induced apoptosis (data not shown). No change in the levels of expression of Bcl-2 or BcI XL was observed by Western blot (data not shown).

[10] = tested on: Jurkat.ecoR cells; experiment: anti-Fas mAb-induced apoptosis in Jurkat.ecoR cells expressing the construct; format: cell-based, human; conditions: for anti-Fas mAb-induced apoptosis: 10 ng/ml anti-Fas mAb, 24 hours, in words
Description: Jurkat cells that express the receptor for ecotropic murine retroviruses (“Jurkat.ecoR”) were infected with retroviruses that express Toso and control vectors, pBabeMN-Toso, pBabeMN-lacZ and pBabeMN-Lyt-2-α′(α′ form of mouse CD8α chain) (Tagawa, et al. (1986)). Jurkat.ecOR cells were infected with pBabeMN-lacZ, pBabeMN-Lyt-2-α′, and pBabeMN-Toso. At 72 hours postinfection, infection frequency of pBabeMN-lacZ and pBabeMN-Lyt-2α′ were determined to be 45% and 58%, respectively. Jurkat cells were then cultured with 10 ng/ml anti-Fas mAb for 24 hours. After 12 or 24 hours, the cells were stained with 100 μg/ml ethidium bromide (SIGMA) and 100 μg/ml acridine orange (SIGMA). Apoptotic cells and non-apoptotic cells were identified with UV microscopy as described (MacGahon, et al., The End of the (Cell) Line: Methods for the Study of Apoptosis in vitro, in Methods in cell biology, L. J. Schwartz and B. A. Osborne, eds., San Diego, Calif., Academic Press, Inc., pp. 172-173 (1995)).
Jurkat.ecOR cells were infected with pBabeMN-Lyt-2-α′. HA, pBabeMN-Toso. HA, pBabeMN-TosoΔ(377-390). HA, pBabeMN-TosoΔ(334-390). HA, pBabeMN-TosoΔ(281-390).HA, pBabeMNTosoΔ(252-390).HA and pBabeMN-TosoΔ(29-187).HA. Jurkat cells were cultured with 10 ng/ml anti-Fas mAb for 24 hours and apoptotic cells were counted. […] Deletions of regions of the cytoplasmic domain of Toso from 334 to 390 still inhibited apoptosis. Moreover, a deletion of Toso lacking the entire cytoplasmic domain still retained substantial anti-apoptotic ability. Thus, the cytoplasmic domain of Toso is not absolutely required for the anti-apoptotic effects on Fas antibody-stimulated cells.

[11] = tested on: Jurkat.ecoR cells; experiment: PMA/Ionomycin-induced apoptosis in Jurkat.ecoR clones; format: cell-based, human; conditions: five pBabeMN-Toso-infected clones; 10 ng/ml PMA and 500 ng/ml Ionomycin, 24 hours
Description: However, following activation with PMA/lonomycin one third of Jurkat cells were clearly resistant to anti-Fas mAb induced apoptosis.
We further tested whether Toso expression could rescue activation-induced programmed cell death. We randomly picked five pBabeMN-Toso-infected Fas resistant Jurkat T cell clones and used these to assay the inhibitory effect of Toso on PMA/lonomycin-induced apoptosis.

DEVD-CHO
ceramide-induced apoptosis [1]: does not inhibit

Lyt-2: full length Lyt-2 (mouse CD8α), control [reference compound]
massive / rapid cell death in 70Z/3 cells ([2]; after retroviral infection, in words): did not induce rapid cell death

B1: Toso: novel 390-amino acid Ig superfamily type 1 membrane protein (SEQ ID NO:2), expressed from retroviral vector pBabeMN (protein, listed as Homo sapiens)
chain: MDRWLWPLYFLPVSGALRILPEVKVEGELGGSVTIKCPLPEMHVRIYLCREMAGSGTCGTVVSTTNFIKAEYKGRVTLKQYPRKNLFLVEVTQLTESDSGVYACGAGMNTDRGKTQKVTLNVHSEYEPSWEEQPMPETPKWFHLPYLFQMPAYASSSKFVTRVTTPAQRGKVPPVHHSSPTTQITHRPRVSRASSVAGDKPRTFLPSTTASKISALEGLLKPQTPSYNHHTRLHRQRALDYGSQSGREGQGFHILIPTILGLFLLALLGLVVKRAVERRKALSRRARRLAVRMRALESSQRPRGSPRPRSQNNIYSACPRRARGADAAGTGEAPVPGPGAPLPPAPLQVSESPWLHAPSLKTSCEYVSLYHQPAAMMEDSDSDDYINVPA
ceramide-induced apoptosis [3]: not resistant
staurosporine-induced apoptosis [3]: not resistant
processed form (p20) of FLICE after Fas activation [4]: greatly reduced
apoptosis induced by anti-Fas mAb ([5]; all human T cell lines and B cell line Ocl-Ly8): inhibited
protection against Fas-induced apoptosis ([5]; the other cell lines): no significant protection
cFLIP expression [6]: induced
TNF-α-induced apoptosis [7]: protected against TNF-α-induced apoptosis
FADD-induced apoptosis in cells constitutively expressing the construct [8]: failed to induce apoptosis
dead cells after infection ([2]; 70Z/3 cells infected with pBabeMN-Toso): about 70%
levels of expression of Bcl-2 or Bcl XL [9]: No change
Fas induced apoptosis in the presence of CHX ([10]; 10 ng/ml anti-Fas mAb with 0.1 μg/ml CHX, 12 hours): inhibited Fas induced apoptosis
anti-Fas mAb-induced apoptosis [10]: resistant to Fas-mediated apoptosis over a range of antiFas dilutions
surviving Jurkat cells that expressed GFP ([10]; pBabeMN-Toso-IRES-GFP-infected cells, five days with 50 ng/ml anti-Fas mAb): 99.7%
PMA/Ionomycin-induced apoptosis [11]: significant resistance

B2: 4.8.HA: full-length Toso with C-terminal influenza hemagglutinin (HA) tag (protein)
chain: RILPEVKVEGELGGSVTIKCPLPEMHVRIYLCREMAGSGTCGTVVSTTNFIKAEYKGRVTLKQYPRKNLFLVEVTQLTESDSGVYACGAGMNTDRGKTQKVTLNVHSEYEPSWEEQPMPETPKWFHLPYLFQMPAYASSSKFVTRVTTPAQRGKVPPVHHSSPTTQITHRPRVSRASSVAGDKPRTFLPSTTASKISALEGLLKPQTPSYNHHTRLHRQRALDYGSQSGREGQGFHILIPTILGLFLLALLGLVVKRAVERRKALSRRARRLAVRMRALESSQRPRGSPRPRSQNNIYSACPRRARGADAAGTGEAPVPGPGAPLPPAPLQVSESPWLHAPSLKTSCEYVSLYHQPAAMMEDSDSDDYINVPA
modifications: left off: small tags and cut ends
notes: full-length Toso with C-terminal influenza hemagglutinin (HA) tag
% Viable Cells [2]: 30 ± 4%
massive / rapid cell death in 70Z/3 cells [2]: massive cell death was observed
anti-Fas mAb-induced apoptosis [10]: markedly inhibited

B3: FADD: mouse FADD expressed from the pBabeMN retroviral vector, apoptosis inducer (protein, UniProt Q61160 1-205, looked up)
FAS-associated death domain …: MDPFLVLLHSLSGSLSGNDLMELKFLCRERVSKRKLERVQSGLDLFTVLLEQNDLERGHTGLLRELLASLRRHDLLQRLDDFEAGTATAAPPGEADLQVAFDIVCDNVGRDWKRLARELKVSEAKMDGIEEKYPRSLSERVRESLKVWKNAEKKNASVAGLVKALRTCRLNLVADLVEEAQESVSKSENMSPVLRDSTVSSSETP
apoptosis induced in control Jurkat cells [8]: 45%
